Article PMC13313556, “Development and characterization of triazole-based WDR5 inhibitors for the treatment of glioblastoma” (JCI Insight, 2026)

Biological target: His6-SUMO-WDR5 (recombinant human WD-repeat containing protein 5, residues Ser22-Cys334) (human, UniProt P61964 22-334)
Assay: AlphaScreen or HTRF; competitive TR-FRET: 1 nM LanthaScreen Elite Tb-anti-His antibody, 150 nM 10-mer-Thr-FAM peptide, 2 nM His6-SUMO-WDR5 in 1X PBS pH 7.2, 300 mM NaCl, 0.5 mM TCEP, 0.1% CHAPS; 1 hour at room temperature; small-molecule inhibitors titrated to displace the peptide
Details: both partners purified

binding result: binds
B1: 10-mer-Thr-FAM peptide probe (ARTEVHLRKS-[Ahx-Ahx][Lys-(5-FAM)]) (peptide)
peptide: ARTEVHLRKS
modifications: C-terminal Ahx-Ahx followed by Lys-(5-FAM)
notes: WIN-site peptide probe; After the ten printed residues come two aminohexanoic acid (Ahx) units and a lysine that carries 5-FAM; also called labeled WIN-site peptide; labeled WIN-peptide; source: synthetic peptide (GenScript)
